{"source": "patent US20080188404", "proteins": {"B1": {"name": "human factor I (protein)", "chain": "KVTYTSQEDLVEKKCLAKKYTHLSCDKVFCQPWQRCIEGTCVCKLPYQCPKNGTAVCATNRRSFPTYCQQKSLECLHPGTKFLNNGTCTAEGKFSVSLKHGNTDSEGIVEVKLVDQDKTMFICKSSWSMREANVACLDLGFQQGADTQRRFKLSDLSINSTECLHVHCRGLETSLAECTFTKRRTMGYQDFADVVCYTQKADSPMDDFFQCVNGKYISQMKACDGINDCGDQSDELCCKACQGKGFHCKSGVCIPSQYQCNGEVDCITGEDEVGCAGFASVTQEETEILTADMDAERRRIKSLLPKLSCGVKNRMHIRRKRIVGGKRAQLGDLPWQVAIKDASGITCGGIYIGGCWILTAAHCLRASKTHRYQIWTTVVDWIHPDLKRIVIEYVDRIIFHENYNAGTYQNDIALIEMKKDGNKKDCELPRSIPACVPWSPYLFQPNDTCIVSGWGREKDNERVFSLQWGEVKLISNCSKFYGNRFYEKEMECAGTYDGSIDACKGDSGGPLVCMDANNVTYVWGVVSWGENCGKPEFPGVYTKVANYFDWISYHVGRPFISQYNV"}}}
{"protein": "B1", "values": [{"measurement": "cofactor assay: factor I cleavage of C3b, Western blot", "setting": "hybrid protein DAF-CR1B", "value": "DAF-CR1B acts as cofactor for factor I as shown by the appearance of a band at 29 kDa"}, {"measurement": "cofactor assay: factor I cleavage of C3b, SDS-PAGE and Western blot with anti-human C3 polyclonal antibody", "setting": "hybrid protein DAF-MCP", "value": "Supernatants with factor I and either DAF-MCP or DAF-CR1BB both exhibited 43 and 40 kDa bands corresponding to formation of iC3b and C3c, respectively"}]}
